What was measured:
[1] = target: NF-κB p65, endogenous in the cells (activated by TNFα) (human) (UniProt Q04206)
[2] = target: CIAS1-PYD (pyrin only CIAS1 construct) (Homo sapiens (Human)) (UniProt Q96P20)
[3] = target: Myc-ASC (Myc-tagged Apoptosis speck protein containing a CARD) (Homo sapiens (Human)) (UniProt Q9ULZ3)
[4] = target: NF-κB p65, endogenous in the cells (activated by TNFα) (human) (UniProt Q04206); remark: listed apart in the source

TNFα-stimulated 3X-NF-κB-Luc reporter (luciferase) [1] [fold] | percentage of ASC expressing cells containing specks (CIAS1-PYD co-expressed) [2] [%] | percentage of ASC expressing cells containing specks (CIAS1-PYD co-expressed) [3] [%] | p65 localization pattern after TNFa treatment (immunofluorescence, cells scored) [4] [%] | Substance
3 | – | – | – | FLAG-POP2 (POP2 with an N-terminal Flag epitope in pcDNA 3.1)
– | 10 | 10 | 40 | GFP-POP2 (GFP fusion of pyrin-only protein 2)
